# From PMC12407893 (bioRxiv, 2025)
# T1: RPB5, as subunit of purified yeast pol II (S. cerevisiae, UniProt P20434 1-215)
# T1 sequence: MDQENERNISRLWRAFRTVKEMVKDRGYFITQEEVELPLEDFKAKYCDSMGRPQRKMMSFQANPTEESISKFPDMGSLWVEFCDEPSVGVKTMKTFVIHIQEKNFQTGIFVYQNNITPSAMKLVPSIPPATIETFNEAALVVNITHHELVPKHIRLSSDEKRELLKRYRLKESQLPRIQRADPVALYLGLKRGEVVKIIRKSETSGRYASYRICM
# What was measured:
# [1] = molecular target: T2, yeast RNA polymerase II (pol II) WT, TAP tag on RPB3 (S. cerevisiae, UniProt P04050;P08518;P16370;P20433;P20434;P20435;P34087;P20436;P27999;P22139;P38902;P40 …); assay: pull-down
# [2] = molecular target: T2, yeast RNA polymerase II (pol II) WT, …; assay: cross-linking
# [3] = molecular target: T1, RPB5, as subunit of purified yeast pol …; assay: cross-linking
# [4] = molecular target: RPB1, as subunit of purified yeast pol II (S. cerevisiae, UniProt P04050 1-1733); assay: cross-linking
# [5] = molecular target: T2, yeast RNA polymerase II (pol II) WT, …; assay: pull-down; remark: listed apart in the source
# RPB1, as subunit of purified yeast pol II, sequence (P04050 whole entry): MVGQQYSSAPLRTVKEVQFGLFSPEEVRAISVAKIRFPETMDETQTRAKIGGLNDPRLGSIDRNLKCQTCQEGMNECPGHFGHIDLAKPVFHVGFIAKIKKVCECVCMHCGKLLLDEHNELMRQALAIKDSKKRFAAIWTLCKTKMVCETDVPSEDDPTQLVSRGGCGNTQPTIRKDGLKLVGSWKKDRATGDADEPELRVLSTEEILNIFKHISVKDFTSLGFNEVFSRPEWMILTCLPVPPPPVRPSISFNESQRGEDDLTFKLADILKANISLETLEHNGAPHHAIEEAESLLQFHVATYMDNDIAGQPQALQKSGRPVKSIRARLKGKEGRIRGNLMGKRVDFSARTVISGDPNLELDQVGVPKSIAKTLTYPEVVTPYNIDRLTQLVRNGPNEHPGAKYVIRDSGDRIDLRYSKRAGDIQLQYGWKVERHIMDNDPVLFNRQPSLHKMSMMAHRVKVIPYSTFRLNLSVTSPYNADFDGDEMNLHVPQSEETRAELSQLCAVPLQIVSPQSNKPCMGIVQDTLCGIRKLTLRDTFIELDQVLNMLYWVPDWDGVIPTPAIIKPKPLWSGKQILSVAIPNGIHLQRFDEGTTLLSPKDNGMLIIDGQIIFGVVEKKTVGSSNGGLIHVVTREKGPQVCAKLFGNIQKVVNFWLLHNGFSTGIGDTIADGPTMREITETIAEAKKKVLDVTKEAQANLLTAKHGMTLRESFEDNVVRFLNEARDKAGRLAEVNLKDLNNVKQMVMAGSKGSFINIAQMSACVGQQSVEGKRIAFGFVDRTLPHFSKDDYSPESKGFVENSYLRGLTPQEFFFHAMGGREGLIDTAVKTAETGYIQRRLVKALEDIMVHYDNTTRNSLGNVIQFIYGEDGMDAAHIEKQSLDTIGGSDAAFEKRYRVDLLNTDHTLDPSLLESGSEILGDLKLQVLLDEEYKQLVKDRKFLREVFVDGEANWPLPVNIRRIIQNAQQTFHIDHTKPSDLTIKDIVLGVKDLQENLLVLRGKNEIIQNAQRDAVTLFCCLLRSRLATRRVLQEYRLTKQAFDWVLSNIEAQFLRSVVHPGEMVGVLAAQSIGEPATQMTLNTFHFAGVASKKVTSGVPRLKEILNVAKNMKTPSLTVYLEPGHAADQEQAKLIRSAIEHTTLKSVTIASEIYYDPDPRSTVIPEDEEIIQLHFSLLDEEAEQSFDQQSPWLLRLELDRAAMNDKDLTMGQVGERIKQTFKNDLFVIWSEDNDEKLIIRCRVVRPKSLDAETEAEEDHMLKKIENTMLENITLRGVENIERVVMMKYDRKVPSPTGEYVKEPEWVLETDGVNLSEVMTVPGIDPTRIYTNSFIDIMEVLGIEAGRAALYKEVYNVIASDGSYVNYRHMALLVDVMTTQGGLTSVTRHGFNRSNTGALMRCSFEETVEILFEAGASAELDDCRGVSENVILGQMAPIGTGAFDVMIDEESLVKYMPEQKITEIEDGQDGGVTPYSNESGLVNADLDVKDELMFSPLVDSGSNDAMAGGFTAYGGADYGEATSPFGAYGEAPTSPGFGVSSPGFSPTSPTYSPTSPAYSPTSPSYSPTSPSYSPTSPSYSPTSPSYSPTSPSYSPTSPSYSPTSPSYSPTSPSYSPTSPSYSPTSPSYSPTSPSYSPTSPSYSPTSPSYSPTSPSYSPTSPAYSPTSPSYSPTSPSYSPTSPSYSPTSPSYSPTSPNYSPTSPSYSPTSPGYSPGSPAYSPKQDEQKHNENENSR
Binder,binding result [1],other results
GST-fused Prp40 FF2 domain (204–269) (domain or fragment) FKEAFQKMLQNNSHIKYYTRWPTAKRLIADEPIYKHSVVNEKTKRQTFQDYIDTLIDTQKESKKKL,binds,
GST-fused Prp40 FF3 domain (270–335) (domain or fragment) KTQALKELREYLNGIITTSSSETFITWQQLLNHYVFDKSKRYMANRHFKVLTHEDVLNEYLKIVNT,binds,
GST-fused Prp40 FF4 domain (351–415) (domain or fragment) NYTRDRIARDNFKSLLREVPIKIKANTRWSDIYPHIKSDPRFLHMLGRNGSSCLDLFLDFVDEQR,binds,
Prp40 FF4–6 (351–552) (domain or fragment) NYTRDRIARDNFKSLLREVPIKIKANTRWSDIYPHIKSDPRFLHMLGRNGSSCLDLFLDFVDEQRMYIFAQRSIAQQTLIDQNFEWNDADSDEITKQNIEKVLENDRKFDKVDKEDISLIVDGLIKQRNEKIQQKLQNERRILEQKKHYFWLLLQRTYTKTGKPKPSTWDLASKELGESLEYKALGDEDNIRRQIFEDFKPE,,binding result [2]: binds; binding result [3]: binds; binding result [4]: binds
"protein A-tagged Prp40, full length (natural protein) MSIWKEAKDASGRIYYYNTLTKKSTWEKPKELISQEELLLRENGWKAAKTADGKVYYYNPTTRETSWTIPAFEKKVEPIAEQKHDTVSHAQVNGNRIALTAGEKQEPGRTINEEESQYANNSKLLNVRRRTKEEAEKEFITMLKENQVDSTWSFSRIISELGTRDPRYWMVDDDPLWKKEMFEKYLSNRSADQLLKEHNETSKFKEAFQKMLQNNSHIKYYTRWPTAKRLIADEPIYKHSVVNEKTKRQTFQDYIDTLIDTQKESKKKLKTQALKELREYLNGIITTSSSETFITWQQLLNHYVFDKSKRYMANRHFKVLTHEDVLNEYLKIVNTIENDLQNKLNELRLRNYTRDRIARDNFKSLLREVPIKIKANTRWSDIYPHIKSDPRFLHMLGRNGSSCLDLFLDFVDEQRMYIFAQRSIAQQTLIDQNFEWNDADSDEITKQNIEKVLENDRKFDKVDKEDISLIVDGLIKQRNEKIQQKLQNERRILEQKKHYFWLLLQRTYTKTGKPKPSTWDLASKELGESLEYKALGDEDNIRRQIFEDFKPESSAPTAESATANLTLTASKKRHLTPAVELDY",,binding result [5]: binds
GST-fused Prp40 FF1 domain (134–189) (domain or fragment) EAEKEFITMLKENQVDSTWSFSRIISELGTRDPRYWMVDDDPLWKKEMFEKYLSNR,binds,
GST-fused Prp40 FF6 extension (488–583) (domain or fragment) NERRILEQKKHYFWLLLQRTYTKTGKPKPSTWDLASKELGESLEYKALGDEDNIRRQIFEDFKPESSAPTAESATANLTLTASKKRHLTPAVELDY,binds,
